In paper PMC6980540:

Tests used:
[1] = target: Spa47 (Shigella T3SS ATPase), wild-type (S. flexneri) (UniProt P0A1C1)
[2] = target: Spa47 (Shigella T3SS ATPase), wild-type (S. flexneri) (UniProt P0A1C1); remark: listed apart in the source

Spa47 (Shigella T3SS ATPase), wild-type (from UniProt P0A1C1 1-430) (enzyme)
ATPase activity of the Spa47 oligomer formed in vitro by concentrating the monomer to ~200 μM ((μmol ADP/min) /mg Spa47) [1]: 1.5 | ATPase activity of the isolated monomeric Spa47 before its conversion to oligomer ((μmol ADP/min) /mg Spa47) [1]: 0.11 | ATP hydrolysis rate (normalized for enzyme concentration) of monomeric Spa47 as a function of enzyme concentration [2]: 3 fold
